Measurements from patent US9539338B2, “Polymer-based protein engineering methods to rationally tune enzyme activity, pH-dependence and stability” (Carnegie Mellon University, priority 2013, dated 2017).

Experiment: Stability study: irreversible inactivation at 40° C., pH 7-9, residual activity
Assay type: physicochemical
Settings: for half-life t1/2: 40 μM enzyme
Experimental: Native CT and the prepared conjugates (1.5 to 2.0 mL of 40.0 μM) were incubated in 100 mM sodium phosphate buffer at different pH's at 40° C. Aliquots (20 μL) were removed and added into sodium phosphate buffer (180 μL, 100 mM, at 0° C.). The residual activity was calculated as a ratio of initial rates of hydrolysis reaction at given incubation time over the initial activity, which monitored spectrophotometrically as described above. Half-lives for enzyme longevity were estimated by non-linear curve fitting (equation for single exponential decay) using Enzfitter.
CT inactivation can occur through unfolding and/or autolysis. The polymer component of the PBPE conjugates may stabilize the enzyme by increasing the energy needed to unfold the protein and also by inhibiting autolysis directly. Since the autolysis reaction of proteases is favored when the enzyme concentration is high, (Yang, Z.; Domach, M.; Auger, R.; Yang, F. X.; Russell, A. J. Enzyme Microb. Technol. 1996, 18, 82-89) stability at relatively high enzyme concentration (40 μM) was investigated. At 40° C. the residual activity of the enzyme was measured as a function of pH and shown in FIG. 8, and the first order rate constant for deactivation and half-life were calculated (Table 5).

With “α-Chymotrypsin (CT) from bovine pancreas (type II) [Native CT]” the “half-life t1/2” value (pH 7.0, 40° C.) was 7.15 ± 0.91 h, the “half-life t1/2” value (pH 7.0, 40° C., listed as native enzyme) was 7.2 h and the initial activity retained (pH 7, 40° C., after 6 h) was 50%. The “half-life t1/2” value (pH 8.0, 40° C.) was 1.95 ± 0.25 h, the “half-life t1/2” value (pH 9.0, 40° C.) was 1.53 ± 0.20 h and the biocatalytic activity lost (pH 9, 40° C., after 6 h) was 70-80%.
